From patent US6436691B1, “Chemical compounds” (Zeneca Limited, priority 1995, dated 2002)
Residue numbers refer to the chain shown, from its start. In names and notes the source's numbering stands.

Experiments:
[1] = Conversion of Hipp-Glu to hippuric acid by mutant and native human CPB, HPLC assay (Example 6); format: biochemical; settings: 5 hr at 37° C.; 4 μg enzyme; 0.5 mM substrate
Experimental: (§1) Purified mutants of human CPB (D253K and D253R; Examples 1-3) and native human CPB, produced as described in Reference Example 12, were assayed for their ability to convert either hippuryl-L-aspartic acid (Hipp-Asp—Reference Example 2), hippuryl-L-glutamic acid (Hipp-Glu—Reference Example 1) or hippuryl-L-arginine (Sigma Chemical Company—cat no. H6625) to hippuric acid using a HPLC based assay.
(§2) The reaction mixture (250 μl) contained 4 μg human CPB (native or mutant) and 0.5 mM Hipp-Asp or Hipp-Glu in 0.025 M Tris-HCL, pH 7.5. Samples were incubated for 5 hr at 37° C. The reactions were terminated by the addition of 250 μl of 80% methanol, 20% distilled water, 0.2% trifluoro acetic acid and the amount of hippuric acid generated was quantified by HPLC.
(§3) HPLC analysis was carried out using a Hewlett Packard 1090 Series 11 (with diode array) HPLC system. Samples (50 μl) were injected onto a Hichrom Hi-RPB column (25 cm) and separated using a mobile phase of 40% methanol, 60% distilled water, 0.1% trifluoro acetic acid at a flow rate of 1 ml/min. The amount of product (hippuric acid) produced was determined from calibration curves generated with known amounts of hippuric acid (Sigma-H6375). The results are shown in Table 1 and are expressed as the percentage conversion of substrate into product in 5 hr at 37° C. with 4 μg enzyme.

[2] = Conversion of Hipp-Asp to hippuric acid by mutant and native human CPB, HPLC assay (Example 6); format: biochemical; settings: 5 hr at 37° C.; 4 μg enzyme; 0.5 mM substrate
Experimental: as §1, §2, §3

[3] = Conversion of Hipp-Arg to hippuric acid by mutant and native human CPB, HPLC assay (Example 6); format: biochemical; settings: 5 hr at 37° C.; 4 μg enzyme
Experimental: as §1, §2, §3

[4] = Km and kcat of recombinant HCPB against Hipp-Arg, spectrophotometric assay; format: biochemical; settings: Hipp-Arg 0.75-[…]; CPB 1 μg/ml; 37° C.; pH 7.5
Experimental: Purified human CPB, produced as described in Reference Example 12, was assayed for its ability to convert hippuryl-L-arginine (Hipp-Arg; Sigma) to hippuric acid using a spectrophotometric assay.
Measurements were carried out at 37° C. in 0.25 mM Tris HCl buffer, pH 7.5 using 1 cm path length cuvettes in a total volume of 1.0 ml using a Perkin Elmer Lambda 2 spectrophotometer. Km and Vmax values were calculated using the ENZFITTER software programme (Biosoft, Perkin Elmer). Kcat was calculated from Vmax by dividing by the enzyme concentration in the reaction mixture.

[5] = tested on: LoVo colorectal tumour cells; settings: 100 μg enzyme added to assay wells containing glutamic acid prodrug
[6] = Activity against Hipp-Glu in crude E. coli periplasmic shockate relative to D253K or D253R HCPB (Example 16); format: biochemical
Description: (§4) A number of other mutant HCPBs have been constructed in a similar manner to the methods described in Reference Examples 7 and 8, and Examples 12, 13, 14 and 15. In each case oligos were constructed to introduce specific changes in the gene sequence by methods similar to those described above. In some cases additional mutations were identified upon complete sequencing of the mutated gene, and these were presumably introduced during the PCR reactions. Mutants with enzyme activity against substrate analogues (see Example 18 below) have been identified, and examples of these are given in Table 4 below. […] This material is subsequently referred to as periplasmic shockate or shockate and is prepared by the following procedure.
(§5) 1. A single colony was used to inoculate 75 ml of L-broth nutrient media containing 10 μg/ml tetracycline and arabinose to a final concentration of 0.01% (w/v). Incubation was performed at 20° C. with shaking (250 rpm) for about 60 hours.
(§6) 2. The cells were then harvested by centrifugation at 4° C.
(§7) 3. The cell pellet was re-suspended in 300 micro-liters of 20% sucrose (w/v) containing 1 mM EDTA in 200 mM Tris-HCl at pH7.5, and incubated at room-temperature for 15 minutes.
(§8) 4. Periplasmic shockate was generated by the addition of 450 micro-liters of distilled water, and a further incubation at room-temperature for 15 minutes.
(§9) 5. Cellular remains were removed by centrifugation, and the supernatant assayed for enzyme activity as soon as possible after preparation and kept at 4° C. prior to assay.
The activity of [G251T,D253K]HCPB was measured using the assay conditions described in Example 17 but using either 50 μl of a neat or 1 in 10 or 1 in 100 dilution of [G251T,D253K]HCPB crude E.coli periplasmic shockate (shockate) sample in place of purified enzyme. Samples were incubated for 24 h at 37° C. […] The amount of Hippuric acid produced in 24 h was quantified by HPLC as described in Example 17 and the results are shown in Table 6 and are expressed as the percentage conversion of substrate into product in 24 h at 37° C.

[7] = Activity against Hipp-Asp in crude E. coli periplasmic shockate relative to D253K or D253R HCPB (Example 16); format: biochemical
Description: as §4, §5, §6, §7, §8, §9
(§10) The activity of [G251T,D253K]HCPB was measured using the assay conditions described in Example 17 but using either 50 μl of a neat or 1 in 10 or 1 in 100 dilution of [G251T,D253K]HCPB crude E.coli periplasmic shockate (shockate) sample in place of purified enzyme. Samples were incubated for 24 h at 37° C. […] For other HCPB mutants, the reaction volume was 250 μl and contained 125 μl of neat shockate or 1 in 50 dilution of shockate. The shockate samples were prepared as described in Example 16. The amount of Hippuric acid produced in 24 h was quantified by HPLC as described in Example 17 and the results are shown in Table 6 and are expressed as the percentage conversion of substrate into product in 24 h at 37° C.

[8] = Conversion of Hipp-Arg by purified HCPB mutants, 30 minutes, HPLC (Example 17); format: biochemical; settings: 0.5 mM substrate, 30 minutes at 37° C.
Experimental: (§11) Purified mutants of human CPB (D253K; [G251K,D253R]; [G251N,D253R]; [I201S,D253K]; [G251N,D253K]; [Q54R,D145A,D253K]; [G251T,D253K]; [G251S,D253K]; [A248N,G251N,D253K]; [A248S,G251N,D253K] and [S205N,G251N,D253K]—described in Examples 3, 12, 13, 16, 28, 30, 31, 32 and 33) were assayed for their ability to convert hippuryl-L-glutamic acid (Hipp-Glu—Reference Example 1), hippuryl-L-aspartic acid (Hipp-Asp—Reference Example 2) and hippuryl-L-arginine (Sigma Chemical Company—cat no. H6625) to hippuric acid using a HPLC based assay similar to that described in Example 6.
(§12) Samples were incubated for 30 minutes at 37° C. The reactions were terminated by the addition of 500 μl of 40% methanol, 60% distilled water, 0.2% trifluoro acetic acid and the amount of hippuric acid generated was quantitated by HPLC as described in Example 6 but using a mobile phase of 20% methanol, 80% 50 mM phosphate buffer, pH 6.5. Hippuric acid was detected at 230 nm. The results are shown in Table 5 and are expressed as the percentage conversion of substrate into product in 30 minutes at 37° C.

[9] = Conversion of Hipp-Asp by purified HCPB mutants, 30 minutes, HPLC (Example 17); format: biochemical; settings: 0.5 mM substrate, 30 minutes at 37° C.
Experimental: as §11, §12

[10] = Conversion of Hipp-Glu by purified HCPB mutants, 30 minutes, HPLC (Example 17); format: biochemical; settings: 0.5 mM substrate, 30 minutes at 37° C.
Experimental: as §11, §12

[11] = Conversion of prodrug of Example 24 to drug of Example 25 by HCPB mutants, HPLC (Example 20); format: biochemical; settings: 0.5 mM prodrug of Example 24, 5 minutes at 37° C.
Experimental: The reaction was stopped by adding MeCN (500 μl) plus 0.2% Trifluoroacetic acid. The amount of drug produced was then quantified by HPLC.
HPLC separation was carried out as described in Example 6 except that a mobile phase of 70% MeCN, 30% distilled water and 0.1% trifluoroacetic acid was used to achieve separation of prodrug (retention time 3.8 minutes) and drug (retention time 4.9 minutes) and the compounds were detected at 260 nm. The amount of drug produced was quantified from calibration curves generated with known amounts of drug.
The amount of [Q54R,D145A,D253K]HCPB and [G251T,D253K]HCPB mutants was reduced to 0.75 μg in the reaction mixture.

[12] = Conversion of Hipp-Arg by periplasmic shockate of HCPB mutants, 24 h (Example 18); format: biochemical; settings: 24 h at 37° C.
Experimental: as §10

[13] = Conversion of Hipp-Glu by periplasmic shockate of HCPB mutants, 24 h (Example 18); format: biochemical; settings: for Hipp-Glu (% conversion): 24 h at 37° C.
Experimental: as §10

[14] = Km and kcat of HCPB mutants with Hipp-Glu (Example 7); format: biochemical; settings: Hipp-Glu 0.25-8.0 mM; pH 7.5; 5 h at 37° C.
Experimental: Hipp-Glu and Hipp-Asp were diluted in range 0.25-8.0 mM and 0.25-5.0 mM respectively in 0.025 M Tris-HCL buffer, pH 7.5. Where necessary substrate samples were adjusted to pH 7.5 with 1M NaOH.
Samples were incubated for 5 h at 37° C. Reactions were terminated by the addition of 500 μl methanol/distilled water (80/20) containing 0.2% TFA. The amount of hippuric acid produced was quantified by HPLC as described in Example 6.
Km and Vmax values were calculated using the ENZFITTER software programme (Biosoft, Perkin Elmer).

[15] = Conversion of Hipp-Asp by periplasmic shockate of HCPB mutants, 24 h (Example 18); format: biochemical; settings: 24 h at 37° C.
Experimental: as §10

[16] = shockate concentration in reaction mixture 1 %
[17] = shockate concentration in reaction mixture 10 %

B1: Native HCPB: purified recombinant native human pancreatic carboxypeptidase B (protein, UniProt P15086 111-417, looked up)
Carboxypeptidase B: ATGHSYEKYNKWETIEAWTQQVATENPALISRSVIGTTFEGRAIYLLKVGKAGQNKPAIFMDCGFHAREWISPAFCQWFVREAVRTYGREIQVTELLDKLDFYVLPVLNIDGYIYTWTKSRFWRKTRSTHTGSSCIGTDPNRNFDAGWCEIGASRNPCDETYCGPAAESEKETKALADFIRNKLSSIKAYLTIHSYSQMMIYPYSYAYKLGENNAELNALAKATVKELASLHGTKYTYGPGATTIYPAAGGSDDWAYDQGIRYSFTFELRDTGRYGFLLPESQIRATCEETFLAIKYVASYVLEHLY
- Hipp-Glu (% conversion to Hippuric acid) [1]: 0%
- Hipp-Asp (% conversion to Hippuric acid) [2]: 0%
- Hipp-Arg (% conversion to Hippuric acid) [3]: 100%
- Km [4]: 180 µM
- kcat against Hipp-Arg [4]: 65 s⁻¹
- cytotoxicity of the glutamic acid prodrug with enzyme added [5]: does not significantly enhance

B2: [I201T, D253R]: HCPB mutant with I201T and D253R, (His)6-c-myc tag (protein, UniProt P15086 111-417, looked up, variant I201T D253R)
Carboxypeptidase B: B1 Carboxypeptidase B with I201T, D253R
modifications: (His)6-c-myc tag
- Hipp-Glu, activity relative to D253K HCPB or D253R HCPB [6]: b (activity equivalent to D253R HCPB)
- Hipp-Asp, activity relative to D253K HCPB or D253R HCPB [7]: b (activity equivalent to D253R HCPB)

B3: [I201S, D253K]: HCPB mutant with I201S and D253K (protein, UniProt P15086 111-417, looked up, variant I201S D253K)
Carboxypeptidase B: B1 Carboxypeptidase B with I201S, D253K
- Hipp-Arg (% conversion) ([8]; enzyme 2.5 μg/ml): 0%
- Hipp-Arg (% conversion) ([8]; enzyme 25 μg/ml): 0%
- Hipp-Asp (% conversion) ([9]; enzyme 2.5 μg/ml): 5.8%
- Hipp-Asp (% conversion) ([9]; enzyme 25 μg/ml): 33.1%
- Hipp-Glu, activity relative to D253K HCPB or D253R HCPB [6]: NAD (No activity detected)
- Hipp-Glu (% conversion) ([10]; enzyme 2.5 μg/ml): 4.6%
- Hipp-Glu (% conversion) ([10]; enzyme 25 μg/ml): 27.8%
- Hipp-Asp, activity relative to D253K HCPB or D253R HCPB [7]: b (activity equivalent to D253R HCPB)
- Prodrug Hydrolysis (%) ([11]; enzyme 15 μg/ml): 72.6%

B4: [G251T,D253K]: HCPB mutant with G251T and D253K, (His)6-c-myc tag (protein, UniProt P15086 111-417, looked up, variant G251T D253K)
Carboxypeptidase B: B1 Carboxypeptidase B with G251T, D253K
modifications: (His)6-c-myc tag
- Hipp-Arg (% conversion) ([8]; enzyme 0.02 μg/ml): 0%
- Hipp-Arg (% conversion) ([8]; enzyme 25 μg/ml): 5.2%
- Hipp-Arg (% conversion) [12, 16]: 0.1%
- Hipp-Arg (% conversion) [12, 17]: 0.8%
- Hipp-Glu (% conversion) ([13]; shockate concentration in reaction mixture 0.1 %): 60%
- Hipp-Glu (% conversion) [13, 16]: 93%
- Hipp-Glu (% conversion) [13, 17]: 100%
- fold more active against Hipp-Glu compared to Hipp-Arg ([13]; shockate samples, 24 h): over 900 fold
- fold more active than D253K at converting Hipp-Glu to hippuric acid ([13]; shockate samples, 24 h): at least 50 fold
- Hipp-Asp (% conversion) ([9]; enzyme 0.02 μg/ml): 0%
- Hipp-Asp (% conversion) ([9]; enzyme 25 μg/ml): 14%
- Km [14]: 1100 µM
- kcat, Hipp-Glu [14]: 75 s⁻¹
- Hipp-Glu (% conversion) ([10]; enzyme 0.02 μg/ml): 8.2%
- Hipp-Glu (% conversion) ([10]; enzyme 25 μg/ml): 100%
- Hipp-Asp (% conversion) [15, 16]: 0%
- Hipp-Asp (% conversion) [15, 17]: 2.6%
- Prodrug Hydrolysis (%) ([11]; enzyme 1.5 μg/ml): 36.0%
